Data: patent publication US20130079278A1 (Novo Nordisk, published 2013)
*1 amine or outer side, *2 acyl side, *3 side chain or, on linkers, in order; H or OH if unused. Where no end group is shown, it is not given here. Side-chain parts run from the residue outwards. The star is where a group is joined. X1 = 4‑(16-(1H-tetrazol-5-yl)hexadecanoylsulfamoyl)butanoyl, O=C(CCCCCCCCCCCCCCCc1nnn[nH]1)NS(=O)(=O)CCCC(=O)*; X2 = 4‑(16-(1H-tetrazol-5-yl)hexadecanoylsulfamoyl)butanoyl, O=C(CCCCCCCCCCCCCCCc1nn[nH]n1)NS(=O)(=O)CCCC(=O)*; C18 diacid = O=C(O)CCCCCCCCCCCCCCCCC(=O)*; C16 diacid = O=C(O)CCCCCCCCCCCCCCC(=O)*; γGlu = O=C(O)[C@H](CCC(=O)[*:2])N[*:1]; AEEA = NCCOCCOCC(=O)O

B1: N^ε24-[(4S)-4-carboxy-4-[[2-[2-[2-[[2-[2-[2-[[(4S)-4-carboxy-4-[[(4S)-4-carboxy-4-(17-carboxyheptadecanoylamino)butanoyl]amino]butanoyl]amino]ethoxy]ethoxy]acet … (peptide)
peptide: HSQGTFTSDVSKYLDTRRAQEFVK([γGlu-AEEA-AEEA-γGlu-γGlu-C18 diacid])WLLST-NH2
modifications: N-terminus assumed
SMILES: CC(C)C[C@H](NC(=O)[C@H](Cc1c[nH]c2ccccc12)NC(=O)[C@H](CCCCNC(=O)CC[C@H](NC(=O)COCCOCCNC(=O)COCCOCCNC(=O)CC[C@H](NC(=O)CC[C@H](NC(=O)CCCCCCCCCCCCCCCCC(=O)O)C(=O)O)C(=O)O)C(=O)O)NC(=O)[C@@H](NC(=O)[C@H](Cc1ccccc1)NC(=O)[C@H](CCC(=O)O)NC(=O)[C@H](CCC(N)=O)NC(=O)[C@H](C)NC(=O)[C@H](CCCNC(=N)N)NC(=O)[C@H](CCCNC(=N)N)NC(=O)[C@@H](NC(=O)[C@H](CC(=O)O)NC(=O)[C@H](CC(C)C)NC(=O)[C@H](Cc1ccc(O)cc1)NC(=O)[C@H](CCCCN)NC(=O)[C@H](CO)NC(=O)[C@@H](NC(=O)[C@H](CC(=O)O)NC(=O)[C@H](CO)NC(=O)[C@@H](NC(=O)[C@H](Cc1ccccc1)NC(=O)[C@@H](NC(=O)CNC(=O)[C@H](CCC(N)=O)NC(=O)[C@H](CO)NC(=O)[C@@H](N)Cc1c[nH]cn1)[C@@H](C)O)[C@@H](C)O)C(C)C)[C@@H](C)O)C(C)C)C(=O)N[C@@H](CC(C)C)C(=O)N[C@@H](CO)C(=O)N[C@H](C(N)=O)[C@@H](C)O

Molecular target: glucagon receptor (human, UniProt P47871 26-477)
Sequence (P47871 26-477): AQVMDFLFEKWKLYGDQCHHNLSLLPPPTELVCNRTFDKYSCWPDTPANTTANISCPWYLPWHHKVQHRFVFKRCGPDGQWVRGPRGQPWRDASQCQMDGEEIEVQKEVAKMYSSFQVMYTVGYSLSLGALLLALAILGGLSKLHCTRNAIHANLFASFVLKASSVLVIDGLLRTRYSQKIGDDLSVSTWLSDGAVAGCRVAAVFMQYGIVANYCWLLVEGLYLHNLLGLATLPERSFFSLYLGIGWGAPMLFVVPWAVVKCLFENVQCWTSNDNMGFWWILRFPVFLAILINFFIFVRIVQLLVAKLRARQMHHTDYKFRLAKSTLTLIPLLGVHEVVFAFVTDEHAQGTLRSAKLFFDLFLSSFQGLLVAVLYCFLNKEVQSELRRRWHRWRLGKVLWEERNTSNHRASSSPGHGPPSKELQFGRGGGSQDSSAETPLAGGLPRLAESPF
Test: cell-based or functional assay

| Binder | Assay (I) Glucagon [EC50] [nM] |
| --- | --- |
| HSQGTFTSDYSKYLESRRAQDFVK([γGlu-γGlu-AEEA-AEEA-γGlu-C18 diacid])WLLQT | 0.517 |
| B1 | 0.156 |
| HSQGTFTSDVSKYLDTRRAQEFVK([AEEA-AEEA-γGlu-γGlu-γGlu-C18 diacid])WLLST | 0.08 |
| HSQGTFTSDVSKYLDLRRAQEFVK([γGlu-AEEA-AEEA-γGlu-γGlu-C18 diacid])WLLST | 0.088 |
| HSQGTFTSDVSRYLDTRRAQEFVK([γGlu-AEEA-AEEA-γGlu-γGlu-C18 diacid])WLLST | 0.176 |
| HSQGTFTSDYSKYLESRRAQDFVK([γGlu-γGlu-AEEA-γGlu-X1])WLLST | 0.362 |
| HSQGTFTSDYSKYLESRRAQDFVK([γGlu-γGlu-AEEA-X1])WLLST | 0.395 |
| HSQGTFTSDYSRYLDLRRAQDFVK([γGlu-γGlu-AEEA-AEEA-γGlu-X2])WLLST | 0.231 |
| HSQGTFTSDYSRYLDLRRAQDFVK([γGlu-γGlu-AEEA-AEEA-X1])WLLST | 0.357 |
| HSQGTFTSDYSKYLESRRAQDFVK([γGlu-γGlu-AEEA-AEEA-γGlu-C16 diacid])WLLST | 0.071 |
| HSQGTFTSDYSKYLDVRRAQDFVK([γGlu-γGlu-AEEA-AEEA-γGlu-C18 diacid])WLLNT | 0.081 |
| HSQGTFTSDYSRYLESRRAQDFVK([γGlu-γGlu-AEEA-AEEA-γGlu-C16 diacid])WLLST | 0.14 |
| HSQGTFTSDYSRYLESRRAQEFVK([γGlu-γGlu-AEEA-AEEA-γGlu-C16 diacid])WLLST | 0.072 |
| HSQGTFTSDYSRYLDARRAQDFVK([γGlu-γGlu-γGlu-C16 diacid])WLLST | 0.016 |
| HSQGTFTSDYSRYLDARRAQDFVK([γGlu-γGlu-γGlu-γGlu-C16 diacid])WLLST | 0.106 |
| HSQGTFTSDYSRYLDLRRAQDFVK([γGlu-γGlu-γGlu-γGlu-C16 diacid])WLLST | 0.109 |
